Two molecules from US20120316071A1 (published 2012) can be followed below.

Experiment [1] concerns the target T1, rHuman IGF-1 sR, CF (R&D Systems Cat#391-GR) (human, UniProt P08069 31-932).
T1 construct: Bought soluble receptor; The column head prints only 'IGF-1'; also called insulin-like growth factor-1 soluble receptor
As to the kind of experiment: ECL Multispot (MSD) assay, antigen spotted on plate, 10 nM Fab; blank spot of this row 344.

Experiment [2] deals with T2, rHuman P-Cadherin/Fc Chimera, CF (R&D Systems Cat#861-PC) (human, UniProt P22223 108-654).
T2 construct: Bought reagent; Fc part of the bought chimera not given
The experiment is described as above.

The target in experiment [3] is T3, rHuman Erythropoietin R/Fc Chimera, CF (R&D Systems Cat#963-ER) (human, UniProt P19235 25-250).
T3 construct: Bought reagent; also called EPO R; EPO R/Fc; Fc part of the bought chimera not given
T3 sequence (looked up): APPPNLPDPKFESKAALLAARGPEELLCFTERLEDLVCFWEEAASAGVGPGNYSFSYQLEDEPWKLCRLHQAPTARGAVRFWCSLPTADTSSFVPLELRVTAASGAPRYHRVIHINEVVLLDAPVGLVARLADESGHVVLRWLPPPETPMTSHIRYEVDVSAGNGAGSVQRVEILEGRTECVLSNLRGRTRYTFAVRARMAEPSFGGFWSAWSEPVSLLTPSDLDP
Described as above.

The target of experiment [4] is T4, rHuman ErbB2/Fc Chimera, CF (R&D Systems Cat#1129-ER) (human, UniProt P04626 23-652).
T4 construct: Bought reagent; also called human epidermal growth factor 2 receptor; Fc part of the bought chimera not given
Described as above.

Experiment [5] deals with T5, rHuman Notch-1/Fc Chimera, CF (R&D Systems Cat#3647-TK) (human, UniProt P46531 19-526).
T5 construct: Bought reagent; Fc part of the bought chimera not given
Described as above.

In experiment [6] the target is T6, rHuman CD44/Fc Chimera, CF (R&D Systems Cat#3660-CD) (human, UniProt P16070 21-220).
T6 construct: Bought reagent; Fc part of the bought chimera not given
Described as above.

Experiment [7] deals with T7, Recombinant Human DLL4 (R&D Systems Cat#1506-D4/CF) (human, UniProt Q9NR61 27-524).
T7 construct: Bought recombinant protein; also called rHuman DLL4; delta-like protein 4
Kind of experiment: MSD multispot ECL, antigen spotted, Fab 148.9 nM; blank spot 218.

Experiment [8] deals with T8, rHuman ErbB2/Fc Chimera, CF (R&D Systems Cat#1129-ER) (human, UniProt P04626 23-652).
T8 construct: Bought reagent; also called human epidermal growth factor 2 receptor
The experiment is described as above.

Experiment [9] addresses T9, rHuman EGF R/Fc Chimera, CF (R&D Systems Cat#344-ER) (human, UniProt P00533 25-645).
T9 construct: Bought reagent; also called epidermal growth factor receptor
Described as above.

Experiment [10] concerns the target T10, rHuman HGF R/c-MET/Fc Chimera, CF (R&D Systems Cat#358-MT/CF) (human, UniProt P08581 25-932).
T10 construct: Bought reagent; also called HGF R/Fc; hepatocyte growth factor receptor
The description is as above.

For experiment [11], the target named is T11, rHuman Notch-1/Fc Chimera, CF (R&D Systems Cat#3647-TK) (human, UniProt P46531 19-526).
T11 construct: Bought reagent
The description is as above.

For experiment [12], the target named is T12, rHuman CD44/Fc Chimera, CF (R&D Systems Cat#3660-CD) (human, UniProt P16070 21-220).
T12 construct: Bought reagent
The description is as above.

The target of experiment [13] is T13, rHuman IGF-1 sR, (IGF-1 sR), CF (R&D Systems Cat#391-GR) (human, UniProt P08069 31-932).
T13 construct: Bought soluble receptor; also called insulin-like growth factor-1 soluble receptor
The experiment is described as above.

In experiment [14] the target is T14, rHuman Erythropoietin R/Fc Chimera, CF (R&D Systems Cat#963-ER) (human, UniProt P19235 25-250).
T14 construct: Bought reagent; also called EPO R/Fc; Epo R
T14 sequence (looked up): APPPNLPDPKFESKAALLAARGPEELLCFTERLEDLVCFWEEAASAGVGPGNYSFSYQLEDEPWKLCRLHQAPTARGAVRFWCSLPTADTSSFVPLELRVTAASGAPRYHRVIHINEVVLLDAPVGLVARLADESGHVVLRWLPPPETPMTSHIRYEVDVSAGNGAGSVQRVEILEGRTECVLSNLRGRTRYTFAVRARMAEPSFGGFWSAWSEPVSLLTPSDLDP
The experiment is described as above.

The target of experiment [15] is T8, rHuman ErbB2/Fc Chimera, CF (R&D …). Kind of experiment: MSD multispot ECL, antigen spotted, Fab 595.8 nM; blank spot 285.
Experiment [16] concerns the target T9, rHuman EGF R/Fc Chimera, CF (R&D …). Described as above.
For experiment [17], the target named is T10, rHuman HGF R/c-MET/Fc Chimera, CF (R&D …). The experiment is described as above.
The target of experiment [18] is T11, rHuman Notch-1/Fc Chimera, CF (R&D …). The experiment is described as above.
The target of experiment [19] is T13, rHuman IGF-1 sR, (IGF-1 sR), CF (R&D …). The description is as above.
In experiment [20] the target is T14, rHuman Erythropoietin R/Fc Chimera, CF …. The experiment is described as above.

T10 sequence (P08581 25-932, change not shown): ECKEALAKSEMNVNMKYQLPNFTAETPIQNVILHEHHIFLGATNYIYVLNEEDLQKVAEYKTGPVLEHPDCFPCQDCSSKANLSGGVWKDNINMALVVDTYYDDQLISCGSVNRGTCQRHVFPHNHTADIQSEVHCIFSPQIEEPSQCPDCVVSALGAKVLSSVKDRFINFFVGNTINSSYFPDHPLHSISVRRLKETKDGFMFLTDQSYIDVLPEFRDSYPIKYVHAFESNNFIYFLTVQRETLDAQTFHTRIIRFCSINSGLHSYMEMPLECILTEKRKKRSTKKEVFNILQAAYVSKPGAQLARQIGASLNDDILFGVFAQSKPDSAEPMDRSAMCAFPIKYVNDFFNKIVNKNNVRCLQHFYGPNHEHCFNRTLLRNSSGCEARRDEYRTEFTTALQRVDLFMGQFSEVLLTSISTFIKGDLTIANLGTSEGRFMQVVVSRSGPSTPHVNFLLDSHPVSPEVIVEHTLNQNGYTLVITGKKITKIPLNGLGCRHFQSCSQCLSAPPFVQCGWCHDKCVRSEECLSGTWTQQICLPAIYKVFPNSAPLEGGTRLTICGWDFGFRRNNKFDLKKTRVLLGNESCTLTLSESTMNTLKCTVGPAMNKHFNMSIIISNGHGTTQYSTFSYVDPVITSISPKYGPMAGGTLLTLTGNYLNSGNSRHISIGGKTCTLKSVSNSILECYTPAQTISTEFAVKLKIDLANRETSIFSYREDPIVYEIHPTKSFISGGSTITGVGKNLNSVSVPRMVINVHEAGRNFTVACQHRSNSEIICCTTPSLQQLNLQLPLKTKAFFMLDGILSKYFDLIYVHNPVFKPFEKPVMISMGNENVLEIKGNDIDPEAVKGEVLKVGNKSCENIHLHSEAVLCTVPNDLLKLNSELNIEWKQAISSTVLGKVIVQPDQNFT

B1: Fab VH1-46_IGHD6-6*01_IGHJ1*01 S102A/S103P/S104F (APF) & L6_IGKJ1*01 (Fab, V domains shown)
VH: QVQLVQSGAEVKKPGASVKVSCKASGYTFTSYYMHWVRQAPGQGLEWMGIINPSGGSTSYAQKFQGRVTMTRDTSTSTVYMELSSLRSEDTAVYYCAREEYAPFSAEYFQHWGQGTLVTVSS
VL: not shown
notes: Tested as a Fab made in E. coli; also called H:APF & L:wt; APF triple mutant
Take B1: the ECL signal in experiment [1] amounted to 293; in [2] it was 293; in [3], 389; in experiment [4], 356; in experiment [5], 363; in experiment [6], 417.

B2: Fab VH1-46_IGHD6-6*01_IGHJ1*01 & L6_IGKJ1*01 (Fab, V domains shown)
VH: QVQLVQSGAEVKKPGASVKVSCKASGYTFTSYYMHWVRQAPGQGLEWMGIINPSGGSTSYAQKFQGRVTMTRDTSTSTVYMELSSLRSEDTAVYYCAREEYSSSSAEYFQHWGQGTLVTVSS
VL: not shown
notes: Only variable domains are tied to the molecule; Tested as a Fab made in E. coli: heavy chain from Plasmid A (CH1 constant region, His6 and Flag tags), kappa light chain from Plasmid C (kappa CL); also called parent Hit Fab against DLL4; VH1-46_IGHD6-6*01_IGHJ1*01 & L6_IGKJ1*01 (parental)
With B2, the ECL signal was 16300 ECL signal in experiment [7]; 247 ECL signal in experiment [8]; 290 ECL signal in experiment [9]; 205 ECL signal in experiment [10]; 375 ECL signal in experiment [11]; 348 ECL signal in [12]. Besides, the ECL signal is 322 ECL signal in experiment [13]; 373 ECL signal in [14]; 321 ECL signal in [15]; 403 ECL signal in experiment [16]; 353 ECL signal in experiment [17]; 306 ECL signal in experiment [18]. For the same molecule, the figures for the ECL signal in [19] and in [20] were 335 ECL signal and 378 ECL signal, respectively.
